Measured values taken from publication PMC10413660, “Structural basis of purine nucleotide inhibition of human uncoupling protein 1” (Science Advances, 2023).

B1: human uncoupling protein 1 (UCP1) (natural protein, UniProt P25874 2-307, looked up)
chain: GGLTASDVHPTLGVQLFSAGIAACLADVITFPLDTAKVRLQVQGECPTSSVIRYKGVLGTITAVVKTEGRMKLYSGLPAGLQRQISSASLRIGLYDTVQEFLTAGKETAPSLGSKILAGLTTGGVAVFIGQPTEVVKVRLQAQSHLHGIKPRYTGTYNAYRIIATTEGLTGLWKGTTPNLMRSVIINCTELVTYDLMKEAFVKNNILADDVPCHLVSALIAGFCATAMSSPVDVVKTRFINSPPGQYKSVPNCAMKVFTNEGPTAFFKGLVPSFLRLGSWNVIMFVCFEQLKRELSKSRQTMDCAT
notes: wild-type human UCP1, UniProt P25874; the forward primer joins the His8 tag and Factor Xa site to codon 2 of UCP1, the reverse primer runs to the stop codon; also called SLC25A7; not shown: His8, N-terminal, cleaved
B2: nanobody CA9871 (VHH)
VHH: QVQLVESGGGLVQAGDSLRLSCAASGLTLKNYAMGWFRQAPGKEHEFVAVISWSGSGTSYADSVEGRFTISRDNAKNTAFLQMSSLKPEDTAVYYCAARDGGYGSRWPDEYTYWGQGTQVTVPP
notes: the nanobody part of PMb71, whose structure is deposited as PDB 8G8W; phage display library in the pMESy4 vector; also called nanobody 71
B3: nanobody CA9865 (VHH)
VHH: QVQLVESGGGLVQAGGSLRLSCAPSGRTSSTYTMGWFRQAPGKEREFVAAISWTGTPYYADSVKGRFTISRDNAKNTVYLQMNSLKPEDTAVYYCAAARPGLFIFVSDYARTAKYDYWGQGTQVTVPP
notes: the nanobody part of PMb65, whose structure is deposited as PDB 8G8W; phage display library in the pMESy4 vector; also called nanobody 65

What was measured:
Conditions in all cases: both partners purified
[1] = target: T1, Pro-macrobody PMb65 (nanobody CA9865 fused with maltose-binding protein via a Pro-Pro linker) (llama (Lama glama) | ); assay: cryo-EM structure; purified UCP1, PMb65 and PMb71 mixed stoichiometrically, overnight at 4°C, with 2 mM GTP and 2 mM D-maltose; 20 mM MES pH 6.0, 150 mM NaCl, 0.02% decyl maltose neopentyl glycol
T1 construct: nanobody CA9865; the structure with PMb65 is deposited as PDB 8G8W (only regions of PMb65 are modelled); Pro-Pro linker between nanobody and MBP; parts of it are removed from the deposited model; also called cytoplasmic Pro-macrobody; source: E. coli MC1061, purified (Ni-NTA, 3C cleavage, Strep-Tactin XT); not shown: MBP with deca-His tag, N-terminal, cleaved

[2] = target: T2, Pro-macrobody PMb71 (nanobody CA9871 fused with maltose-binding protein via a Pro-Pro linker) (llama (Lama glama) | ); assay: as above
T2 construct: nanobody CA9871; the structure with PMb71 is deposited as PDB 8G8W; Pro-Pro linker between nanobody and MBP; also called matrix Pro-macrobody; source: E. coli MC1061, purified (Ni-NTA, 3C cleavage, Strep-Tactin XT); not shown: MBP with deca-His tag, N-terminal, cleaved

[3] = target: B1; assay: thermostability shift assay (cysteine-reactive probe CPM); 5 μg purified human UCP1 with an equimolar amount of nanobody, with or without 1 mM GTP, 1 hour at 4°C; 25° to 90°C at 5.6°C/min

Binder | binding result [1] | binding result [2] | thermal stabilisation (shift of Tm) [3] [°C]
B1 | binds | binds | –
B2 | – | – | 0.8
B3 | – | – | 5
